Data on two sequences can be found in patent publication US20140296501.

For the series, the target named is EGFR (ERBB1) (UniProt P00533).

Like-named read-outs stand apart in the source and are kept apart here.

Where the note is “N = BndU [n positions 2,8,9,11,15,20,21,23,24,28,29,31,32,33,37,38 = modified dU]”, “ATCGAGGTTGTGGGTCGGATTGTTGGATTCTTTAAGTTGGGAACACCAAC [EGFR aptamer SEQ ID NO: 5 (50-mer truncate)]” yielded a Kd of 0.526 nM. Turning to “CCACGCTGGGTGGGTCATCGAGGTTGTGGGTCGGATTGTTGGATTCTTTAAGTTGGGAACACCAACCGAGAACG [EGFR aptamer SEQ ID NO: 4]”, the dissociation constant (Kd) (N = BndU (5-benzylaminocarbonyl-2'-deoxyuridine), text prints natural T in the 5' region CCACGCTGGGTGGGTC while listing shows n there [n positions 7,11,15,18,24,25,27,31,36,37,39,40,44,45,47,48,49,53,54 = modified dU]) was 0.123 nM.
